{"source": "paper PMC5674511", "about": "“Increase of enzyme activity through specific covalent modification with fragments” (Chemical Science, 2017)", "proteins": {"B1": {"name": "BtGH84 (Bacteroides thetaiotaomicron VPI-5482) (protein)", "chain": "QNVSLQPPPQQLIVQNKTIDLPAVYQLNGGEEANPHAVKVLKELLSGKQSSKKGMLISIGEKGDKSVRKYSRQIPDHKEGYYLSVNEKEIVLAGNDERGTYYALQTFAQLLKDGKLPEVEIKDYPSVRYRGVVEGFYGTPWSHQARLSQLKFYGKNKMNTYIYGPKDDPYHSAPNWRLPYPDKEAAQLQELVAVANENEVDFVWAIHPGQDIKWNKEDRDLLLAKFEKMYQLGVRSFAVFFDDISGEGTNPQKQAELLNYIDEKFAQVKPDINQLVMCPTEYNKSWSNPNGNYLTTLGDKLNPSIQIMWTGDRVISDITRDGISWINERIKRPAYIWWNFPVSDYVRDHLLLGPVYGNDTTIAKEMSGFVTNPMEHAESSKIAIYSVASYAWNPAKYDTWQTWKDAIRTILPSAAEELECFAMHNSDLGPNGHGYRREESMDIQPAAERFLKAFKEGKNYDKADFETLQYTFERMKESADILLMNTENKPLIVEITPWVHQFKLTAEMGEEVLKMVEGRNESYFLRKYNHVKALQQQMFYIDQTSNQNPYQPGVKTATRVIKPLIDRTFATVVKFFNQKFNAHLDATTDYMPHKMISNVEQIKNLPLQVKANRVLISPANEVVKWAAGNSVEIELDAIYPGENIQINFGKDAPCTWGRLEISTDGKEWKTVDLKQKESRLSAGLQKAPVKFVRFTNVSDEEQQVYLRQFVLTIEKK", "notes": "recombinant purified enzyme"}}, "substrate": "CC(=O)N[C@H]1[C@H](Oc2ccc3c(C)cc(=O)oc3c2)O[C@H](CO)[C@@H](O)[C@@H]1O", "assay": "fluorescence, 4MU release, Michaelis-Menten", "assay_type": "biochemical, Bacteroides thetaiotaomicron", "conditions": "unmodified wild-type enzyme", "from_the_text": "fluorescence, 4MU release, Michaelis-Menten on BtGH84", "data": [{"protein": "B1", "values": [{"measurement": "Km", "result": "1460 ± 220", "unit": "µM"}, {"measurement": "kcat", "result": "67 ± 5", "unit": "s⁻¹"}, {"measurement": "kcat/Km", "result": "46000 ± 5900", "unit": "M⁻¹ s⁻¹"}]}]}
